Experimental data published in patent US20060046277.

Legend:
[1] = tested on: Abl kinase substrate (GST fusion, Table 2) [GST: P08515]
[2] = tested on: AMPK kinase substrate (GST fusion, Table 2) [GST: P08515]
GST-Z2-Abl×1 = tested on: T1, GST-Z2-Abl×1
T1 sequence: AIYAAPF

[3] = tested on: EGFR kinase substrate (GST fusion, Table 2) [GST: P08515]
GST-Abl×1 = tested on: T2, GST-Abl×1
T2 sequence: AIYAAPF

[4] = tested on: dsDNAPK kinase substrate (GST fusion, Table 2) [GST: P08515]
[5] = tested on: GST-dsDNA×4 [GST: P08515]
[6] = tested on: PKA kinase substrate (GST fusion, Table 2) [GST: P08515]
[7] = tested on: GST-dsDNA×3 [GST: P08515]
[8] = tested on: GST-Z1-dsDNA×4 [GST: P08515]
GST-dsDNA×1 = tested on: T3, GST-dsDNA×1
T3 sequence: GGGEETQTQDQPMEEEEV

[9] = tested on: GST-dsDNA×2 [GST: P08515]
[10] = tested on: CK1 kinase substrate (GST fusion, Table 2) [GST: P08515]
[11] = tested on: IKK kinase substrate (GST fusion, Table 2) [GST: P08515]
[12] = tested on: Src kinase substrate (GST fusion, Table 2) [GST: P08515]
[13] = tested on: JNK3 kinase substrate (GST fusion, Table 2) [GST: P08515]
[14] = tested on: ERK kinase substrate (GST fusion, Table 2) [GST: P08515]
[15] = tested on: CK2 kinase substrate (GST fusion, Table 2) [GST: P08515]
[16] = tested on: GST-Z2-AMPK×3 [GST: P08515]
[17] = tested on: GST-Z1-AMPK×3 [GST: P08515]
[18] = tested on: CHK kinase substrate (GST fusion, Table 2) [GST: P08515]
[19] = tested on: GST-Z2-Src×2 [GST: P08515]

JNK3, sequence (P53779 whole entry): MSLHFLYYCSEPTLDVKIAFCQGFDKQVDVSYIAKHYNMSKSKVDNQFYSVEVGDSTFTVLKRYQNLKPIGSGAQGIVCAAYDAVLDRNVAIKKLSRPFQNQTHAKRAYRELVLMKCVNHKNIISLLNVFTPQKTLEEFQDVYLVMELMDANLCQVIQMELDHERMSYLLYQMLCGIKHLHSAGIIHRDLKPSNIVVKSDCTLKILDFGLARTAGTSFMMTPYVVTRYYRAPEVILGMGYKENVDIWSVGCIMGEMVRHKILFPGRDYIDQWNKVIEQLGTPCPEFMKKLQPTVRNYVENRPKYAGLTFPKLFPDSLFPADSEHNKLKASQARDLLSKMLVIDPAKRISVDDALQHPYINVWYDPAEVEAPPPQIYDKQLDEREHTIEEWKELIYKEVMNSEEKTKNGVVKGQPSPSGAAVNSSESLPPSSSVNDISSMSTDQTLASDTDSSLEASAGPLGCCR

Abl
Reactivity for each of the Kinase Substrates (32P phosphorylation, autoradiogram) [1]: +++++ | Reactivity for each of the Kinase Substrates (32P phosphorylation, autoradiogram) [2]: +++ | phosphorylation of the substrate on beads (32P-ATP, SDS-PAGE, autoradiogram; FIG. 6) (GST-Z2-Abl×1): All of the protein kinase substrates reacted with their corresponding kinases | Reactivity for each of the Kinase Substrates (32P phosphorylation, autoradiogram) [3]: +++++ | phosphorylation of the substrate on beads (32P-ATP, SDS-PAGE, autoradiogram; FIG. 6) (GST-Abl×1): All of the protein kinase substrates reacted with their corresponding kinases

dsDNA (DNAPK)
Reactivity for each of the Kinase Substrates (32P phosphorylation, autoradiogram) [4]: +++++ | phosphorylation by dsDNA PK (32P ATP, SDS-PAGE, autoradiogram; FIG. 7) [5]: autoradiogram of phosphorylated GST-dsDNA kinase peptide substrate fusion proteins with different number of the peptide repeats | Reactivity for each of the Kinase Substrates (32P phosphorylation, autoradiogram) [6]: +++++ | phosphorylation by dsDNA PK (32P ATP, SDS-PAGE, autoradiogram; FIG. 7) [7]: autoradiogram of phosphorylated GST-dsDNA kinase peptide substrate fusion proteins with different number of the peptide repeats | phosphorylation of the substrate on beads (32P-ATP, SDS-PAGE, autoradiogram; FIG. 6) [8]: All of the protein kinase substrates reacted with their corresponding kinases | phosphorylation by dsDNA PK (32P ATP, SDS-PAGE, autoradiogram; FIG. 7) (GST-dsDNA×1): autoradiogram of phosphorylated GST-dsDNA kinase peptide substrate fusion proteins with different number of the peptide repeats | phosphorylation by dsDNA PK (32P ATP, SDS-PAGE, autoradiogram; FIG. 7) [9]: autoradiogram of phosphorylated GST-dsDNA kinase peptide substrate fusion proteins with different number of the peptide repeats

CK1
Reactivity for each of the Kinase Substrates (32P phosphorylation, autoradiogram) [4]: +++++ | Reactivity for each of the Kinase Substrates (32P phosphorylation, autoradiogram) [10]: +++++ | Reactivity for each of the Kinase Substrates (32P phosphorylation, autoradiogram) [11]: + | phosphorylation of the substrate on beads (32P-ATP, SDS-PAGE, autoradiogram; FIG. 6) (GST-CK1×4 [GST: P08515]): All of the protein kinase substrates reacted with their corresponding kinases | Reactivity for each of the Kinase Substrates (32P phosphorylation, autoradiogram) [12]: +++++

JNK3
phosphorylation in the 4-member substrate ladder on beads (32P-ATP, SDS-PAGE, autoradiogram; FIG. 12) (GST-JNK3×8 [GST: P08515]): All of the protein kinase substrates reacted with their corresponding kinases, and cross-reactivity with other substrate was minimal | phosphorylation of the substrate on beads (32P-ATP, SDS-PAGE, autoradiogram; FIG. 6) (GST-JNK3×8 [GST: P08515]): All of the protein kinase substrates reacted with their corresponding kinases | Reactivity for each of the Kinase Substrates (32P phosphorylation, autoradiogram) [13]: +++++ | phosphorylation of the substrate on beads (32P-ATP, SDS-PAGE, autoradiogram; FIG. 6) (GST-JNK3×3 [GST: P08515]): All of the protein kinase substrates reacted with their corresponding kinases | Reactivity for each of the Kinase Substrates (32P phosphorylation, autoradiogram) [14]: +

CK2
Reactivity for each of the Kinase Substrates (32P phosphorylation, autoradiogram) [11]: + | phosphorylation of the substrate on beads (32P-ATP, SDS-PAGE, autoradiogram; FIG. 6) (GST-CK2×4 [GST: P08515]): All of the protein kinase substrates reacted with their corresponding kinases | Reactivity for each of the Kinase Substrates (32P phosphorylation, autoradiogram) [15]: +++++

AMPK
phosphorylation of the substrate on beads (32P-ATP, SDS-PAGE, autoradiogram; FIG. 6) [16]: All of the protein kinase substrates reacted with their corresponding kinases | Reactivity for each of the Kinase Substrates (32P phosphorylation, autoradiogram) [2]: +++++ | phosphorylation of the substrate on beads (32P-ATP, SDS-PAGE, autoradiogram; FIG. 6) [17]: All of the protein kinase substrates reacted with their corresponding kinases

CHK
Reactivity for each of the Kinase Substrates (32P phosphorylation, autoradiogram) [18]: +++++ | phosphorylation of the substrate on beads (32P-ATP, SDS-PAGE, autoradiogram; FIG. 6) (GST-CHK×5 [GST: P08515]): All of the protein kinase substrates reacted with their corresponding kinases

Src
Reactivity for each of the Kinase Substrates (32P phosphorylation, autoradiogram) [1]: +++++ | Reactivity for each of the Kinase Substrates (32P phosphorylation, autoradiogram) [2]: +++ | Reactivity for each of the Kinase Substrates (32P phosphorylation, autoradiogram) [10]: +++++ | Reactivity for each of the Kinase Substrates (32P phosphorylation, autoradiogram) [13]: + | phosphorylation in the 4-member substrate ladder on beads (32P-ATP, SDS-PAGE, autoradiogram; FIG. 12) [19]: All of the protein kinase substrates reacted with their corresponding kinases, and cross-reactivity with other substrate was minimal | phosphorylation of the substrate on beads (32P-ATP, SDS-PAGE, autoradiogram; FIG. 6) [19]: All of the protein kinase substrates reacted with their corresponding kinases | Reactivity for each of the Kinase Substrates (32P phosphorylation, autoradiogram) [12]: +++++

IKK
phosphorylation in the 4-member substrate ladder on beads (32P-ATP, SDS-PAGE, autoradiogram; FIG. 12) (GST-IKK×7 [GST: P08515]): All of the protein kinase substrates reacted with their corresponding kinases, and cross-reactivity with other substrate was minimal | phosphorylation of the substrate on beads (32P-ATP, SDS-PAGE, autoradiogram; FIG. 6) (GST-IKK×7 [GST: P08515]): All of the protein kinase substrates reacted with their corresponding kinases | Reactivity for each of the Kinase Substrates (32P phosphorylation, autoradiogram) [10]: +++++ | Reactivity for each of the Kinase Substrates (32P phosphorylation, autoradiogram) [11]: +++++ | Reactivity for each of the Kinase Substrates (32P phosphorylation, autoradiogram) [13]: + | Reactivity for each of the Kinase Substrates (32P phosphorylation, autoradiogram) [12]: + | Reactivity for each of the Kinase Substrates (32P phosphorylation, autoradiogram) [14]: + | phosphorylation of the substrate on beads (32P-ATP, SDS-PAGE, autoradiogram; FIG. 6) (GST-IKK×4 [GST: P08515]): All of the protein kinase substrates reacted with their corresponding kinases

EGFR
Reactivity for each of the Kinase Substrates (32P phosphorylation, autoradiogram) [1]: +++++ | Reactivity for each of the Kinase Substrates (32P phosphorylation, autoradiogram) [3]: +++++ | phosphorylation in the 4-member substrate ladder on beads (32P-ATP, SDS-PAGE, autoradiogram; FIG. 12) (GST-EGFR×3 [GST: P08515]): All of the protein kinase substrates reacted with their corresponding kinases, and cross-reactivity with other substrate was minimal | phosphorylation of the substrate on beads (32P-ATP, SDS-PAGE, autoradiogram; FIG. 6) (GST-EGFR×3 [GST: P08515]): All of the protein kinase substrates reacted with their corresponding kinases

PKA
Reactivity for each of the Kinase Substrates (32P phosphorylation, autoradiogram) [4]: +++++ | Reactivity for each of the Kinase Substrates (32P phosphorylation, autoradiogram) [12]: +++++ | Reactivity for each of the Kinase Substrates (32P phosphorylation, autoradiogram) [6]: +++++ | phosphorylation of the substrate on beads (32P-ATP, SDS-PAGE, autoradiogram; FIG. 6) (GST-Z1-PKA [GST: P08515]): All of the protein kinase substrates reacted with their corresponding kinases
